# Laboratory results published in PMC7889586, “Effects of Conserved Wedge Domain Residues on DNA Binding Activity of Deinococcus radiodurans RecG Helicase”.
# T1: EcRecG-WD QPW (Escherichia coli MG1655, UniProt P24230 59-135, F99Q;S100P;A101W)
# T1 sequence: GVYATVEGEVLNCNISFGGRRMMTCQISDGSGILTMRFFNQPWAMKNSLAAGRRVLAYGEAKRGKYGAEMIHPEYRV
# T2: DrRecG-WD WT (Deinococcus radiodurans R1, UniProt Q9RT50 158-235)
# T2 sequence: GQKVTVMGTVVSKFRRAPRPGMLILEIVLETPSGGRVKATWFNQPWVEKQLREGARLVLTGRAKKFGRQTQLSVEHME
# What was measured:
# EcRecG-WD QPW = target: T1, EcRecG-WD QPW; experiment: EMSA; 100 nM HJ; significantly increased vs EcRecG-WD WT; 5 mM EDTA; 50 mM Tris-HCl pH 8.0, 5 mM EDTA, 1 mM DTT, 100 ug/ml BSA, 6% glycerol, on ice 15 min; 100 nM HJ; 6% polyacrylamide gel at room temperature; details: protein: recombinant; tags: MBP (N-terminal fusion, pMAL-c2x); four-way junction of 4 strands, 1 copy each
# DrRecG-WD WT = target: T2, DrRecG-WD WT; experiment: EMSA; 100 nM HJ; near saturation at 160 nM protein; 5 mM EDTA; 50 mM Tris-HCl pH 8.0, 5 mM EDTA, 1 mM DTT, 100 ug/ml BSA, 6% glycerol, on ice 15 min; 100 nM HJ; 6% polyacrylamide gel at room temperature; details: protein: recombinant; tags: MBP (N-terminal fusion, pMAL-c2x); four-way junction of 4 strands, 1 copy each
binder,measurement,setting,value
Holliday junction (oligos 1-4) (structured_DNA) DNA 1: GTCGGATCCTCTAGACAGCTCCATGATCACTGGCACTGGTAGAATTCGGC DNA 2: CAACGTCATAGACGATTACATTGCTACATGGAGCTGTCTAGAGGATCCGA DNA 3: TGCCGAATTCTACCAGTGCCAGTGATGGACATCTTTGCCACGTTGACCC DNA 4: TGGGTCAACGTGGGCAAGATGTCCTAGCAATGTAATCGTCTATGACGT,binding result,EcRecG-WD QPW,binds
same,binding result,DrRecG-WD WT,binds
